Measurements as given in paper PMC10106861.

How the values were obtained:
[1] = molecular target: GhWRKY41 full length as GhWRKY41-NLuc and GhWRKY41-CLuc, expressed in cotton protoplasts (Gossypium hirsutum); test: split reporter
[2] = molecular target: GhWRKY41-Myc fusion protein (Gossypium hirsutum); test: immunoprecipitation and Western blot

Row | fold luciferase activity (after V. dahliae supernatant) [1] [fold] | fold luciferase activity (after chitin solution) [1] [fold] | fold luciferase activity over the negative control (normal condition) [1] [fold] | stoichiometry N [2] | Substance
1 | 23 | 27 | 10 | – | GhWRKY41 full length as GhWRKY41-NLuc and GhWRKY41-CLuc, expressed in cotton protoplasts (natural protein)
2 | – | – | – | 2 | GhWRKY41-Myc fusion protein (natural protein)
